In experiment [1] the target is T1, human GIP receptor (human, UniProt P48546 22-466).
T1 sequence: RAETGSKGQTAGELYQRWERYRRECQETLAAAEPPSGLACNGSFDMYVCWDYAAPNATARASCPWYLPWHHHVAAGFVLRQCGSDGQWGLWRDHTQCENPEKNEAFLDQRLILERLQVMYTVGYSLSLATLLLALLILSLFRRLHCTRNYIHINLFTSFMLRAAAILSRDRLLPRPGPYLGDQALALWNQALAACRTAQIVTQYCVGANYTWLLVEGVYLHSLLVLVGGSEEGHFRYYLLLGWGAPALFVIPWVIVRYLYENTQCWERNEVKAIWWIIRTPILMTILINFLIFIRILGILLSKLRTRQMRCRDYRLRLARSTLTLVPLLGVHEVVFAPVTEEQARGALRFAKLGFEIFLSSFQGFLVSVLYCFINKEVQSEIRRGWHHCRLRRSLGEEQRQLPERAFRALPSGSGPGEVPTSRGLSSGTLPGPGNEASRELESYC
In words: cell-based or functional assay.

In experiment [2] the target is T2, mouse GIP receptor (mouse, UniProt Q0P543 19-460).
T2 sequence: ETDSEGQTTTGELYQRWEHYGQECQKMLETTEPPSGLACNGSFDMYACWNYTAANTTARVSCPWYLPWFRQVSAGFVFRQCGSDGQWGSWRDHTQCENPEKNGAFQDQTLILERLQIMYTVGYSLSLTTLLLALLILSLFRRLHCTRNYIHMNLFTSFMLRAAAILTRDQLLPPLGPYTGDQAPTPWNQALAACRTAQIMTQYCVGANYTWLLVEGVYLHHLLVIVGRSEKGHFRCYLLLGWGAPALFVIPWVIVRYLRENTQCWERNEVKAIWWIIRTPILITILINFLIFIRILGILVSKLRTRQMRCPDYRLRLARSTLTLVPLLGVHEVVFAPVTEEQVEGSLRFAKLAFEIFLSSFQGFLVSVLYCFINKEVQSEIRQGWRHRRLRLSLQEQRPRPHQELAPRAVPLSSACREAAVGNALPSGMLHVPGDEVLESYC
Briefly: cell-based or functional assay.

Experiment [3] has as its target T1, human GIP receptor. Briefly: radioligand binding.
The target in experiment [4] is T2, mouse GIP receptor. Briefly: radioligand binding.

*1 amine or outer side, *2 acyl side, *3 side chain or, on linkers, in order; H or OH if unused. Where no end group is shown, it is not given here. Side-chain parts run from the residue outwards. The star is where a group is joined. C18 diacid = O=C(O)CCCCCCCCCCCCCCCCC(=O)*; γGlu = O=C(O)[C@H](CCC(=O)[*:2])N[*:1]; Palmitoyl = CCCCCCCCCCCCCCCC(=O)*; AEEA = NCCOCCOCC(=O)O

Regarding Ac-TFISDYK(C18 diacid)IALDKIRQQEFVNWLLAQKG [[Nα-Ac, L14, R18, E21] hGIP(5-31)-K11 (-C18-OH)], in the experiment with human GIP receptor [1], the “maximal % inhibition of GIP-induced cAMP in BHK cells expressing hGIPR” value was determined as 100%. The “maximal % inhibition of GIP-induced cAMP in BHK cells expressing mGIPR” value with mouse GIP receptor [2] was found to be 100%. The IC50 with human GIP receptor [3] turned out to be 0.9 nM; with mouse GIP receptor [4], 5.4 nM.
For Ac-TFISDYK([γGlu-Palmitoyl])IALDKIRQQEFVNWLLAQKG [[Nα-Ac, L14, R18, E21] hGIP(5-31)-K11 (γE-C16)], the “maximal % inhibition of GIP-induced cAMP in BHK cells expressing hGIPR” value in the experiment with human GIP receptor [1] is 100%. The “maximal % inhibition of GIP-induced cAMP in BHK cells expressing mGIPR” value in the experiment with mouse GIP receptor [2] amounted to 100%.
In the case of Ac-TFISDK([γGlu-Palmitoyl])SIALDKIRQQEFVNWLLAQKG [[Nα-Ac, L14, R18, E21] hGIP(5-31)-K10 (γE-C16)], in the experiment with human GIP receptor [1], the “maximal % inhibition of GIP-induced cAMP in BHK cells expressing hGIPR” value stood at 100%. The “maximal % inhibition of GIP-induced cAMP in BHK cells expressing mGIPR” value with mouse GIP receptor [2] is 100%. Moreover, the IC50 in the experiment with human GIP receptor [3] was 0.21 nM; with mouse GIP receptor [4], 1 nM.
Turning to TFISDYSIALDKIRQQEFVNWLLAQKG [[L14, R18, E21] hGIP(5-31)], the “maximal % inhibition of GIP-induced cAMP in BHK cells expressing hGIPR” value with human GIP receptor [1] amounted to 81%. Further, in the experiment with mouse GIP receptor [2], the “maximal % inhibition of GIP-induced cAMP in BHK cells expressing mGIPR” value is 93%. Besides, the half-maximal inhibitory concentration (IC50) came out at 1.8 nM with human GIP receptor [3] and 18.7 nM in the experiment with mouse GIP receptor [4].
As to Ac-TFISDYK([AEEA-AEEA-C18 diacid])IALDKIRQQEFVNWLLAQKG [[Nα-Ac, L14, R18, E21] hGIP(5-31)-K11(OEG2-C18-OH)], the “maximal % inhibition of GIP-induced cAMP in BHK cells expressing hGIPR” value with human GIP receptor [1] was determined as 100%. In the experiment with mouse GIP receptor [2], the “maximal % inhibition of GIP-induced cAMP in BHK cells expressing mGIPR” value was 100%. In addition, the IC50 is 2.49 nM in the experiment with human GIP receptor [3] and 8.7 nM with mouse GIP receptor [4].
Regarding FISDYSIALDKIRQQEFVNWLLAQKG [[L14, R18, E21] hGIP(6-31)], the “maximal % inhibition of GIP-induced cAMP in BHK cells expressing hGIPR” value with human GIP receptor [1] was 83%. In the experiment with mouse GIP receptor [2], the “maximal % inhibition of GIP-induced cAMP in BHK cells expressing mGIPR” value came to 91%. Besides, the IC50 with human GIP receptor [3] is 6.45 nM; with mouse GIP receptor [4] it was 37.1 nM.
Regarding Ac-TFISDYK([AEEA-AEEA-γGlu-C18 diacid])IALDKIRQQEFVNWLLAQKG [[Nα-Ac, L14, R18, E21] hGIP(5-31)-K11(OEG2-γE-C18-OH)], the “maximal % inhibition of GIP-induced cAMP in BHK cells expressing hGIPR” value in the experiment with human GIP receptor [1] was 100%. In addition, the “maximal % inhibition of GIP-induced cAMP in BHK cells expressing mGIPR” value with mouse GIP receptor [2] stood at 100%. The 50% inhibitory concentration (IC50) with human GIP receptor [3] amounted to 3.83 nM; with mouse GIP receptor [4], 24.8 nM.

B1: [L14, R18, E21] hGIP(3-30)-K11 (γE-C16) (peptide)
peptide: EGTFISDYK([γGlu-Palmitoyl])IALDKIRQQEFVNWLLAQK-NH2
modifications: N-terminus assumed
SMILES: CCCCCCCCCCCCCCCC(=O)N[C@@H](CCC(=O)NCCCC[C@H](NC(=O)[C@H](Cc1ccc(O)cc1)NC(=O)[C@H](CC(=O)O)NC(=O)[C@H](CO)NC(=O)[C@@H](NC(=O)[C@H](Cc1ccccc1)NC(=O)[C@@H](NC(=O)CNC(=O)[C@@H](N)CCC(=O)O)[C@@H](C)O)[C@@H](C)CC)C(=O)N[C@H](C(=O)N[C@@H](C)C(=O)N[C@@H](CC(C)C)C(=O)N[C@@H](CC(=O)O)C(=O)N[C@@H](CCCCN)C(=O)N[C@H](C(=O)N[C@@H](CCCNC(=N)N)C(=O)N[C@@H](CCC(N)=O)C(=O)N[C@@H](CCC(N)=O)C(=O)N[C@@H](CCC(=O)O)C(=O)N[C@@H](Cc1ccccc1)C(=O)N[C@H](C(=O)N[C@@H](CC(N)=O)C(=O)N[C@@H](Cc1c[nH]c2ccccc12)C(=O)N[C@@H](CC(C)C)C(=O)N[C@@H](CC(C)C)C(=O)N[C@@H](C)C(=O)N[C@@H](CCC(N)=O)C(=O)N[C@@H](CCCCN)C(N)=O)C(C)C)[C@@H](C)CC)[C@@H](C)CC)C(=O)O
Turning to B1, the “maximal % inhibition of GIP-induced cAMP in BHK cells expressing hGIPR” value with human GIP receptor [1] is 100%. The “maximal % inhibition of GIP-induced cAMP in BHK cells expressing mGIPR” value with mouse GIP receptor [2] was 97%. In addition, the results for the concentration for half-maximal inhibition (IC50) with human GIP receptor [3] and with mouse GIP receptor [4] were 0.36 nM and 2.1 nM, respectively.
For EGTFISDYSIAMDKIHQQDFVNWLLAQK-NH2 [hGIP(3-30) amide], the “maximal % inhibition of GIP-induced cAMP in BHK cells expressing hGIPR” value in the experiment with human GIP receptor [1] amounted to 81%. The “maximal % inhibition of GIP-induced cAMP in BHK cells expressing mGIPR” value in the experiment with mouse GIP receptor [2] came to 73%. This molecule also registered an IC50 with human GIP receptor [3] of 1.55 nM.

Broadly, the IC50 is the point on the concentration scale where inhibition reaches its midpoint.

The record behind these values is paper PMC9719863 (Molecular Metabolism, 2022).
